Assay: yeast display, Sf9 membrane polyspecificity reagent, FACS + sequencing; frameworks hold sequencing errors
In short: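 Galactose induction of a Saccharomyces cerevisiae BJ5465 synthetic nanobody display library ran 36–48 hours. The cells were then stained for 1 hour at 4 °C with 10% biotinylated, detergent-solubilized Sf9 membrane reagent, pulled down on streptavidin microbeads and FACS-sorted into low and high (top ~1%) gates on expression and reagent-binding fluorescence. Labels for polyreactivity follow the gate of origin.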

Sequence	polyreactivity (PSR sort gate)
QVQLVESGGGLVQAGGSLRLTCAASGPIFVLYAMGWYRQAPGKERELVAAISTSGGSTYYADSVKGRFTISRDNAKNTVYLQMNSLKPEDTAVYYCAADRSARFLFIQYYPYGMDYWGQGTQVTVSS	high polyreactivity
QVQLVESGGGLVQAGGSLRLSCAASGSIFPKYAMGWYRQAPGKERELVAAISRGGGSTYYADSVKGRFTISRDNAKYTVYLQMNSLKPEDTAVYYCAAQYYSLQWEYYYWGQGTQVTVSS	high polyreactivity
QVQLVESGGGLVQAGGSLRLSCAASGSTFKWYGRGWSRQAPGKDRELVATINYSSSTTYYADSVKGRFTISRDNAKNTVYLQMNSLKPEDTAVYYCAKGVYWGTKSTYDYWGQGTQVTVSS	high polyreactivity
QVQLVESGGGLVQAGGSLRLSCAASGSTIGDNAMGWYSQAPGKERELVASISWSGASTYYADSVKGRFTISRDNAKNTVYLQMNSLKPEDTAVYYCAVYYSYYSHLYHLLFYYWGQGTQVTVSS	low polyreactivity
QVQLVESGGGLVQAGGSLRLSCAASGRIFRYYTRGWYRQAPGKERELVAAISSSGGRTYYADSVKGRFTISRDYANNTVYLQMNSLKPEDTAVYYCNTDGPTWYPTYDYWGQGTQVTVSS	high polyreactivity
QVQLVESGGGLVQAGGSLRLSCAASGLIFWKYAMGWYRQAPGKEREFVAAITYGGGGTYYADSVKGRFTISRDNAKNTVYFQMNSLKPEDTAVYYWAKRRYYYKGRVSYRQYGYWGQGTQVTVSS	high polyreactivity
QVQLVESGGGLVQAGGSLRLSCAASGRIFTVNAMGWYRQAPGKERELVASITGRGTRTYYADSVKGRFTISRDNAKNTVYLQMNSLKPEDTAVYYCAAAVARVKYDSKGYYWGQGTQVTVSS	high polyreactivity
QVQLVESGGGLVQAGGSLRLSCSASGSIFPYYAMGWSRQAPGKERELVAAISRSGGSTYYADSVKGRFTISRDNAKNTVYLQMNSLKPEDTAGYYCAAVGGVRPQQHYYYRYDYWGQGTQVTVSS	high polyreactivity
QVQLVESGGGLVQAGGSLRLSCAASGIIFAWYAMGWYRQAPGKERELLAAISWSGGSTYYADSVKGRFTISRDNAKNTVYLQMNILKPEDSAVYYCAPFPRRQGKYDYWGKGTQVTVSS	high polyreactivity
QVQLVESGGGLVQAGGSLRLSCAASGITFSGYAMGWYRQAPGKERDFVAGISYSGGSTYYADSVKGRFTISRDNAKNTVYLQMNSLKPEDTAVYYCAAYFGHYWRYYYWGQGTQVTVSS	high polyreactivity
QVQLVETGGGLLQAGGSLRISSAASGRIFPSFSMGWYRQAPGKERELVAAITRGGASTYYADSVKGRFTISRDNAKNTVYLQMNSLKPEDTAVYYCAKDAYRYGGLSWTTGMDYWGQGTQVTVSS	high polyreactivity
QVQLVESGGGLVQAGGSLRLSCAASGFIFAPNAMGWYRQAPGKERELVAAISQSGASTFYADSVKGRFTISRDNAKNTVYFQMNSLKPEDTAVYYCAAPPYYSYDYWGQGTQVTVSS	low polyreactivity
QVQLVESGGGLVQAGGSLRLSCAASGSTFWYNAMGWYRQAPGKERELVAAISQSGGRTYYADSVKGRFTISRDNAKNTVYLQMNSLKPEDTAVYYCNAVSRDKSLYDYWGQGTQVTVSS	high polyreactivity
QVQLVESGGGLVQAGGSLRLSGAASGSILWSYALGCYIQAPGKERELVAAIRSGGSTYYADSVKGRFTISRDNAKNTVYFQMNSLKPEDTAVLYCNATYAPLFEYDYWGQGTQVTVSS	low polyreactivity
QVQLVESGGGLVQAGGSLRLSCAASGRIGKYAMGWYRQAPGKERELVAAITSGGSTTYADSVKGRITISRDNAKNTVYLQMNSLNPEDTAVYYCKALRRARYTRKGYEYWGQGTQVTVSS	high polyreactivity
QVQLVESGGGLVQAGGSLRLSCAASGFIFYRYAMGWYRQAPGKERELVAAISRSGGSTYYADSVKGRFTISRDNAKNTVYLQMNSLKPEDTAVYYCAADRGSLAPGNDYWGQGTQVTVSS	high polyreactivity
QVQLVESGGGLVQAGGSLRLSCAASGSIYYYTMGWYRQAPGKERELVAAISRSGTRTYYADSVKGRFTISRDNAMYTVYLQMNSLKPEDTAGYYCAARILPPGDNVDDDYWGQGTQVTVSS	high polyreactivity
QVQLVESGGGLVQAGGSLRLSCAASGSTFPSYAMGWYRQAPGKERELVAAINSGGGTNYADSVKGRFTISRDNAKNTVYLQMNSLKPEDTAVYYCNTDILSIYAEPYYFTDVDYWGQGTQVTVSS	low polyreactivity
QVQLVESGGGLVQAGGSLRLSCAASGSTFRGYAMGWYRQAPGKEREIVAAISRRGGTTYYADSVKGRFTISRDNAKNTVYLQMNSLKPEDTAVYYCNKVYYQHYLAFDYWGQGTQVTVSS	high polyreactivity
QVQLVESGGGLVQAGGSLRLSCAASGSTFYTYAMGWYRQAPGKERELVAAISYRGGSTYYADSVKGRFTISRDNAKNTVYLQMNSLKPEDTAVYYCNVDGVVVGTKRGGYDYWGQGTQVTVSS	low polyreactivity
QVQLVESGGGLVQAGGSLRLSCAASGSIFGTYAMGWYRQAPGKERELVAAISFIGGDTYYADSVKGRFTISRDNAKNTVYLQMNSLKPEDTAVYYCAADRELSGYGGEYWGQGTQVTVSS	low polyreactivity
QVHLVESGGGLVQAGGSLRLSCAASGFIFSVYAMGWYRQAPGKERELVAAINRSGSNTYYADSVKGRFTISRDNAKNTVYLQMNSLKPEDTAVYYCATLQGFWYYPPYIKTVQYGYWGQGTQVTVSS	high polyreactivity

Sequence	polyreactivity (PSR sort gate)
QVQLEESGVGLVQAGGSLRLSCAASGSIFYYNAMGSYRQPHGKERDLVAAISWGDGITYYADSVKGRFTISRDNGKNSVYLPMNSLKPEDTAVYYWAVDYYYLPYEYWGKGTQVTVSS	high polyreactivity
QVQLVESGGGLVQAGGSRRLSWAASGFIFARNTMGWYRQAPGTERELVAAITKSGGSTYYADSVKGRFTISRDNAKNTVYLQMNILKPEDTAVYYCGARSYTLRGVYFSGYDYWGQGTQVTVSS	low polyreactivity
QVQLVESGGGLVQAGGSLSLSCAASGGTFSRYGMGWYRQAPGKEREMVAAISRSGGSTYYADSVKWRFTISRDNAKNTVYLQMNSLKPEDTAVYYCAAKLPIPYTTGRYAAMDYWGQGTQVTVSS	high polyreactivity
QVQLVESGGGLVQAGGSLRLSCAASGSIFYHNAMGWYRQAPGKERELVARISSRGGSTYYADSVKGRFTISRDNAKNTVYLQMNSLKPEDTAVYYCNNAYRYTSAYDYWGQGTQVTVSS	high polyreactivity
QVQLVESAAGLVQAGGSLRLTCDGSGTTFPGYAMGWYRPEPGNERELVAAGGSTYYADSVKGRFTISRDNAKNTVYFQMNCLKPVETAGYYCAASWGSFQKGTYYYWGQGTQVTVSS	low polyreactivity
QVQLVESGGGLVQAGGSLRLSCAASGLIFQSYAMGWYRQAPGKERELVAVITWSGTSTYADSVKGRFTISRDNAKNTVYLQMNSLKPEDTAVYYCAASKYGSFTNFGYWGQGTQVTVSS	low polyreactivity
QVQLVESGGGLVQAGGSLRLSCAASGFTFGWYTMGWYRQAPGKERELDAAISLNGGSTYYADSVKGRFTISRDNAKNTVYLQMTSLKPEDTAVYYCAIRYRWPYYPYVYWGQGTQVTVSS	low polyreactivity
QVQLVESGGGLVQAGGSLRLSCAASGLTFKDNAMGWYRQAPGKERELVAAISKGGGSTFYADSVKGRFTISRDYAKNTVYFQMNSLKPEDTAVYYCNADVGYRGGEEVYWGQGTQVTVSS	low polyreactivity
QVQLVESGGGLVQAGGSLRLSCAASGFTIDSNVMGWYRQAPGKDRELVAAITGDDTTYYADSVKGRFTISRDNAKNTVYLQMNSLKPEDTAVYYCAADETESLEYTAYDMYYWGQGTQVTVSS	low polyreactivity
QVQLVESGGGLVQAGGSLRLSSAASGRIFEGYAMGWYRQAPGKERELVAAISSGGSTYYADSVKGRFTISRDNAKNTVYLQMNSLKPEDTAVYYCNAAHSVVSHGPGAGLEMDYWGQGTQVTVSS	low polyreactivity
QVQLVESGGGLVQAGGSLRLSCAASGSTLNRNAMGWYRQAPGKERDLVAAIRVSGGSTYYADSVKGRFTISRDNAKNTVYLQMNSLKPEDTAVYYCATRYVRARWYGYWGQGTQVTVSS	high polyreactivity
QVQLVESGGGLFQAGGSLRLSCAASGSTFVKYAMGRSRPAPAKERELVAAINRSGASTYYADSVKGRFTISRDNATNTVNLQMISLKPEDTAVYYCAARFSWLGYYWGQGTQETVSS	high polyreactivity
QVQLVESGGGLVQAGGSLRLSCAASGLIFRTNAMGGYRQAPGKERELVAAISWSTGTTYYADSVKGRFTISRDIAKNTVYFQMNSVNPEDTAVSYCARTLRWTYRYGYWGQGTQVTVSS	high polyreactivity
QVQLVESGGGLVQAGGSLRLSCAASGRIFKFYAMGWYRQAPGKERELVAGITTSGGSTYYADSVKGRFTISRDNAKNTVYLQMNSLKPEDTAVYYCAASRHFARHRGYYFRYDYWGQGTQVTVSS	high polyreactivity
QDQLVESGGGLVQAGGSLRLSCAASGFTLATYAMGWYSPAPGKEREWVAAITRSGGSTDDADSVKGRFTISRDIAKNTVYVQMNSLKPEDTAVYYCNAREVRYEYNYWGHGTQVTVSS	low polyreactivity
QVQLVESGGGLVQAGGSLRLSCASSGFTFWRNAMGWYRQAPGKERELVAAINWSGGSTYYADSVKGRFTISRDNAKNTVYLQMNSLKPEDTAVYYCAADLSSRGISQDDYWGQCTQVTVSS	high polyreactivity
QVQLVESGGGLVQAGGSLRLSCAASGSTFSTYAMGWYRQAPGKERELVAAIRWSGGSTYYADSVKGRFTISRDNAKNTVYLQMNSLKPEDTAVYYCATDAPDRTDSDSGFDAGYDYWGQGTQVTLSS	low polyreactivity
QVQLVESGGGLVQAGGSLRLSCAAYGSIFRVYAMGWYREAAGKERELVATISWSAGSTYYADSVKGRFTISRDNAKNTVYLQMNSLKPEDTAVYYCAADPVGYYDPSDYWGQGTQVTVSS	low polyreactivity
QVQLVESGGGLVQAGGSLRLSCAASGSTFVPYAMGWYRQAPGKERELVASISWRGGSTSYADSVKGRFTISRDNAKNTVYLQMNSLKPEDTAVYYCAKRRYWAPYDYWGQGTQVTVSS	high polyreactivity
QDQLVESGGGLGQAGGSLRLSCAASGSNFRPNAMGWYRQAPGKEMELVASITRNGGSTYYADSVKGRFTISRDNAKNTVYLQMNSLKPEDTAVYYCNAGYYYWGQGTQVTLSS	high polyreactivity
QVQLVESGGGLVQAGGSLRLSCAASGSISLHYAMGWYRQAPGKERELVAAISKSGGSTYYADSVKGRFTISRDNAKNTVYLQMNSLKPEDTAVYYCAADTYRSFGYNYWGQGTQVTVSS	high polyreactivity

From the nanobody polyreactivity screen of Harvey et al. (2022)
